Assay [1] concerns the target T1, zcyto20 (human IL-28A) (human) (UniProt Q8IZJ0).
T1 sequence: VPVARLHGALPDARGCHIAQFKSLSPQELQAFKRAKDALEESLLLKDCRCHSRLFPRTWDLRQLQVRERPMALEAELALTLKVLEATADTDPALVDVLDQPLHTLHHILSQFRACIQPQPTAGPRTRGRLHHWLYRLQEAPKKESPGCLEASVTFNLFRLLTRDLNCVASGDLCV
Description: cell-based or functional assay.

Assay [2] concerns the target zcyto21 (human IL-29) (human) (UniProt Q8IU54). Briefly: cell-based or functional assay.
Assay [3] has as its target T2, zcyto24 (mouse IL-28A) (mouse) (UniProt Q4VK74).
T2 sequence: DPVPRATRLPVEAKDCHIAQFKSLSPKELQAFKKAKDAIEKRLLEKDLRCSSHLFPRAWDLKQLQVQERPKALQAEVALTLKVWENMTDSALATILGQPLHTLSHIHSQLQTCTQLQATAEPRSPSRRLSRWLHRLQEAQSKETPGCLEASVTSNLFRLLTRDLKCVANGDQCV
Description: cell-based or functional assay.

Assay [4] relates to liver, spleen and blood of mice. Briefly: ISG gene expression (OAS, Pkr, Mx1) in liver, spleen and blood of injected C57BL/6 mice (real-time PCR). Conditions: livers of mice, 100 μg i.v. The assay is classed as in vivo, mouse. As to the method:
Mice were sacrificed at various time points (1 hr-48 hr). Spleens and livers were isolated from mice, and RNA was isolated. RNA was also isolated from the blood cells. The cells were pelleted and RNA isolated from pellets using RNAEasy®-kit (Qiagen). RNA was treated with DNase (Amicon) to rid RNA of any contaminating DNA. cDNA was generated using Perkin-Elmer RT mix (Perkin-Elmer). ISG gene induction was measured by real-time PCR using primers and probes specific for mouse OAS, Pkr and Mx1. To obtain quantitative data, HPRT real-time PCR was duplexed with ISG PCR. A standard curve was calculated using known amounts of IFN-stimulated mouse PBLs. All data are shown as expression relative to internal HPRT expression.

In assay [5] the test system is 293 HEK cells overexpressing zcytor19. Briefly: Inhibition of ligand-induced ISRE-luciferase signaling by soluble receptors. The assay is classed as cell-based, human. Conditions: 10 micrograms/ml soluble receptor.

Chain of zcyto21 (human IL-29) (human) (Q8IU54 20-200): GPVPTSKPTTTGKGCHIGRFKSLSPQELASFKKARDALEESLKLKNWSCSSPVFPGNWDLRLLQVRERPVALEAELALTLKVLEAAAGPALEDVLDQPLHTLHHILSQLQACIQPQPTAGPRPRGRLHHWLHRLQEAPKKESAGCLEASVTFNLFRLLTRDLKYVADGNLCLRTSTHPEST

Turning to “human CRF2-4-Fc homodimer (from UniProt Q08334 20-220) (Fc fusion)”, the results for the Percent Inhibition of Ligand-induced Interferon Stimulated Response Element (ISRE) Signaling by Soluble Receptors in assay [1], in assay [2] and in assay [3] were 80%, 79% and 82%, respectively.

As for “MetIL-29-PEG: E. coli derived pegylated Met IL-29”, in assay [4] (3 hr), the “Mx1 3 hr” value was 537.51 fold expression over HPRT expression, the “OAS 3 hr” value was 91.29 fold expression over HPRT expression and the “PKR 3 hr” value is 18.24 fold expression over HPRT expression. In addition, in assay [4] (6 hr), the “Mx1 6 hr” value is on record as 124.99 fold expression over HPRT expression, the “OAS 6 hr” value is recorded as 65.93 fold expression over HPRT expression and the “PKR 6 hr” value is listed as 13.93 fold expression over HPRT expression. Besides, in assay [4] (12 hr), the “Mx1 12 hr” value is reported as 33.58 fold expression over HPRT expression, the “OAS 12 hr” value is 54.04 fold expression over HPRT expression and the “PKR 12 hr” value is given as 4.99 fold expression over HPRT expression. Besides, in assay [4] (24 hr), the “Mx1 24 hr” value is given as 35.82 fold expression over HPRT expression, the “OAS (24 hr)” value is given as 20.81 fold expression over HPRT expression and the “PKR 24 hr” value is 3.77 fold expression over HPRT expression.

Turning to “human zcytor19-Fc/human CRF2-4-Fc heterodimer (from UniProt Q08334 20-220) (Fc fusion)”, the Percent Inhibition of Ligand-induced Interferon Stimulated Response Element (ISRE) Signaling by Soluble Receptors in assay [1] was found to be 16%; in assay [2] it was 16%; in assay [3] it was 47%.

B1: murine zcytor19-Ig homodimer (Fc fusion, part only; not given: Ig Fc portion, mouse, UniProt Q8CGK5 21-227, looked up, part only)
chain, part: RPRLAPPRNVTLFSQNFTVYLTWLPGLGSPPNVTYFVTYQSYIKTGWRPVEHCAGIKALVCPLMCLKKLNLYSKFKGRVQAASAHGRSPRVESRYLEYLFDVELAPPTLVLTQMEKILRVNATYQLPPCMPSLELKYQVEFWKEGLGSKTLFPDTPYGQPVQIPLQQGASRRHCLSARTVYTLIDIKYSQFSEPSCIFLEAPGDKRA
Regarding B1, the Percent Inhibition of Ligand-induced Interferon Stimulated Response Element (ISRE) Signaling by Soluble Receptors amounted to 91% in assay [1], 103% in assay [2] and 89% in assay [3].

B2: muzcytor19-Ig: murine homodimeric soluble receptor Ig fusion (protein)
chain: B1 chain, part
modifications: left off: a dimerising Fc or GST
notes: murine homodimeric soluble receptor Ig fusion
B2: the “effect on ligand-induced signaling” value in assay [5] is given as “No significant effects”.

B3: human zcytor19-Fc homodimer (Fc fusion, not shown: a dimerising Fc or GST)
chain: RPRLAPPQNVTLLSQNFSVYLTWLPGLGNPQDVTYFVAYQSSPTRRRWREVEECAGTKELLCSMMCLKKQDLYNKFKGRVRTVSPSSKSPWVESEYLDYLFEVEPAPPVLVLTQTEEILSANATYQLPPCMPPLDLKYEVAFWKEGAGNKTLFPVTPHGQPVQITLQPAASEHHCLSARTIYTFSVPKYSKFSKPTCFLLEVPEANWA
In the case of B3, the Percent Inhibition of Ligand-induced Interferon Stimulated Response Element (ISRE) Signaling by Soluble Receptors amounted to 92% in assay [1], 45% in assay [2] and 90% in assay [3].

B4: human zcytor19-Fc homodimeric soluble receptor: homodimeric soluble receptor Fc fusion (protein)
chain: B3 chain
modifications: left off: a dimerising Fc or GST
notes: homodimeric soluble receptor Fc fusion
Regarding B4, the “inhibition of zcyto2′-induced signaling” value in assay [5] is 45%.

B5: huCRF2-4-Fc: homodimeric soluble receptor Fc fusion (protein)
chain: MVPPPENVRMNSVNFKNILQWESPAFAKGNLTFTAQYLSYRIFQDKCMNTTLTECDFSSLSKYGDHTLRVRAEFADEHSDWVNITFCPVDDTIIGPPGMQVEVLADSLHMRFLAPKIENEYETWTMKNVYNSWTYNVQYWKNGTDEKFQITPQYDFEVLRNLEPWTTYCVQVRGFLPDRNKAGEWSEPVCEQTTHDETVPS
modifications: left off: a dimerising Fc or GST
notes: as for B4
In the case of B5, the “effect on ligand-induced signaling” value in assay [5] is reported as “No significant effects”.

The values are drawn from patent US20120114590A1 (priority 2005, published 2012).
